Assay: soluble on expression in E. coli; label from the status in PepcDB or PDB records

Sequence | soluble on expression in E. coli
MKAKREALISLFHAIKEEKVDSDIIDLLLLINSIKGIYTTSSCSGRIGILEEPSLGAKPLSRWLIKVHRPMSFEEARDALKRAREGLIFLKSQPPIFHVVAETIENAKLVHEIGLASGFKYTTFKAISSRFLVEINGTEYLTVPLGKDGRIIASDEYLKFAISIGNKMLERGKSKLPRLRDNFEKIKKKLGEDPLFIQLKREILEI | soluble
MGHHHHHHSHMPKSQVKRQEVISELLVTEAAHVRMLRVLHDLFFQPMAECLFFPLEELQNIFPSLDELIEVHSLFLDRLMKRRQESGYLIEEIGDVLLARFDGAEGSWFQKISSRFCSRQSFALEQLKAKQRKDPRFCAFVQEAESRPRCRRLQLKDMIPTEMQRLTKYPLLLQSIGQNTEEPTEREKVELAAECCREILHHVNQAVRDMEDL | not soluble
MSLTEPEDPSRERLKHHFAQRVIHQARQILEIWQRLQRSEWSTTDMSELCEANLRLLRFAERFEQPEHTQLARSISQSLEAVDANRGRLSSNLITDLNRLMQRLSRTGLRHGDQLEQTFLPPLRKPIYVMLQDHDRAERLAKQLEFFGLSAQSLDSIPAFRSSMVERLPAAIVIDVDFCGAGMGLTLAAEAQVGLEQKLPLLFFSLHETDTPTRLAAVRAGGQEFLTGTLEASSLLEKIEVLTCVAQYEPYKVLIIDDSRAQALHTERLLNSAGIVTRTLIEPIQAMAELADFQPDLIILDMYMPACTGTELAKVIRHNDRYVSVPIIYLSAEDDLDKQLDAMSEGGDDFLTKPIKPRHLITTVRNRAARARNLKARMVRDSLTGEGHHHHHH | not soluble
MTTHIQKPATGSPLTLLNGVLQVPDQPIIPFIEGDGIGCDVTPAMRSVVDAAVAKVYGGQRQIAWMELFAGQKAVQLYGEGQYLPDETMAAIREYKVAIKGPLETPVGGGIRSLNVAMRQDLDLYVCLRPVRYFEGTPSPMRHPEKVDMVIFRENSEDIYAGIEWPAGSPEAEKIIRFLREEMGVTKIRFPDSSAIGIKPVSTEGSERLIRRTIQYALEHGKPSVSLVHKGNIMKFTEGGFRDWGYALAEREFAGRVFTWRQKAAISKAEGKAAGQKAEQQAIADGKLIIKDVIADNFLQQILLRPEDYSVVATLNLNGDYVSDALAAEVGGIGMAPGANLSDTHAIFEATHGTAPDIAGQGKANPSSLILSAVMMLEHLGWGEAAQAIVAAMNATIAAGEVTGDLAALRGDVPALSTTEFTAALIRRF | soluble
MGSDKIHHHHHHKTSSTQLPTIDAISSVADLTNAVNGVYEQQATEVGSYGAEFTLLADLRSGDFQSISTVNHAGPMYRYQTGKNDEMVYSFYKLFYNSLARLNNVLAAAENLEGADVDILKGELYAMRALYHFDLARVFAKLPSTTDMNDLGIVLSTEVYPTDYIGTRATLQQTYDQILKDIETALPLLSKDKQTGHINYWGALAIRARAYLYLEKNKEALADCKEIIASSPYKLYTRDEYIGAWDKEGTNEAIFEILVTPNYNAQRNSIGYFTHASGYGECAATESFLEELAKHPGDIRTELFAKETDNGYDGTYPQKYKGRDGQIYVNNPKVVRLSEVYLIAAEAALKAGDTSAAAGYMNTLRKNRIENYTDVASITLDDILLERRLELFTEGHTAWDAWRNGKSVNNKFVGEVKPGDYRTIMAIPIGEITVSRGQLIQNPGY | not soluble
MGQEYYFCRCGRSKKQPYCDGSHSGTGMKPMSFTAEKDEDAYLCQCKHTANAPFCDGTLEHHHHHH | not soluble
DAQTRRRERRAEKQAQWKAANPLLVGVSAKPVNRP | soluble
MGSDKIHHHHHHMFWFKNALIYRLTKSLDWSVENLQSQLQQCAYSPCQQSDMSRFGWSNPLRESESLSFCVGKQLLLVAHKEEKILPAQVIKRELEERIEQLEQKENRKLKKIEKQALKDDIVATLLPRAFSKNQHTALWIDTENNLIYIDTASTKRAEDCLALLRKSLGSLPVVPLAFANEPSLVMTNWVKENSPQWLTVLEEAELKGSQDQAVIRCKQQVLDSEEMIGLLNSGKYITNLSLNWEEHLSFTLNEDASLKRLKFADQIREQNDDISKEDFAQRFDADFVLMTGILAKLTENLLDEFGGEKERL | not soluble
MSLKNEKQDITLWIAPNNVQEAFWSEVVGEWNKQPDKKKVVFSTIPAAGSSEEAIMNAIASDRAPDISENIFTGFGSQLADLGQVVDLSTLDGYENLISTRQMTDIMDNWRYNGKNYILPIYMNPVLFWWRGDLLKEQGFSEVPKTYDEVYALSEKYTIPDKRYAIQATSGRNWWDRWFDFIALYYAQSDGKPYIANQQASYDNQAGRDVLDFMHTLFSKKWTLYDFGQDDPLVTGKVLGAVRGPWDISRYQQQYPEILKHIKMGPMLVKEQQDKPHTFADGKGLVLFSHSKVKPEAWEFIQWVFSQPKFDKRWMELTGMPPARADLLTNPFFAEYYQEHPYAAAYAEYVNVAIPPVSSGETVEIQRSMTQMIEKTAFNTSTPDEALQQSIKEVNAILKEGHHHHHH | soluble
MGSDKIHHHHHHVKRFDWYTEIHRLDAEADCRRITEILTTHEFPWDIEQALSLALYRTYAVPSIGQLLAETREFLDRTQRRSDDTALILTEIMRHGFEPGRGRDALRRMNQMHRSYDISNDDYLYVLSTFVVMPVRWINDLGYGWRRLTEHEITANTNYYRLLGKHMGIKEIPETYDEFYELFDSYEIAHFGYSEGGRAVSDATLRLMVDTVPRWQQPVFRKFTMALLDDRLIQAFRYDPPSRFWRTAAHLAMWLRAKIVRFMPPRVEPYRIENNPKIKSYPNGYDPRRIGTFPKGCPVPHDMVTIEIPETGARIPAPGQELAPQGQDARA | not soluble
MSLNEKEINYEEVMAKIDPENGIQVEIPRGANTDDIANILREHGVIKYPFWFKFVSKFNGYDGRYKSGKHIVNKDLKYKEIMEILCSNPVTTTVTIIEGKNTDQIADILSEKKVIDKEAFLEACNTEKFDYEFLKDIPENPQRENKLEGYLFPDTYFFDPKAGERAIIEKFLDNFDAKFKPEFYERAKELNMTVDEVIILASIIERETALPEERPIVSSVFHNRLKSSDPNLKKLESCATVQYVLYKTQGKMKEKLSDEDTKIDHPYNTYLYEGLPPGPICCPGLASIEAALYPDEESEYLYFVAKGDGSHEFSRTLAEHLEAVKKYQSNEGHHHHHH | soluble
MAHHHHHHMLRGLVNADALTSEQEEHIDQLQHEIDEIWNRRGNYQVDPDAWETMPFFMENITEEDIDKNANCAALASIVYEEVPPDEIAENRKEHGNRALNMALNPNQERRENLARAACYSYTEALQAKGKNTKLSSTIYANRSLAQFIVGNYGHALADAQRSIILDPNYRKAYYRAAKCAFALKKYDMGLQMLEKGRRVVDPPMDAAAQAEFLEMETNCLQGKEQQASEEAKQRRAARSQAAKVSNVARAITSSGIKISSRAEVTSEQMGVYGNPKPYFDTDGMLHVPLLFMYDEYQQTDIMHDVACDVCAAELLDELMPFPWDDRGRYQRLADIVVFFKIDDGANDVQYYEVDQSWPLLEVFREETYEMPQLMPVLHVVCKTSELVDRLEIHRVA | soluble
MAHHHHHHMGLTDLFRRETPQERIRMYKRQLDRTCRDLDRERNKLSTQERKIMMEMKKMAKQDQVDAVRIMARDLVRTRKYNQKMYRMRTQIQGVSLRMQTMQSSAQMADAMKGVTKAMRSMNKKMNIPEIQKIMREFEKQNEMMGMKEDMMNDAVDEVMDDDGMEEEETEQEIQKVMDEAGLEFRTKVGVTDTALPQKSTETQGETDEELDARLAALKASMK | soluble
MGSDKIHHHHHHMNDFTTEILKTLANKGDLNELFRVHLEKAVNTLLKTELTAFLDYEKYDRIGFNTGNSRNGSYDRTVKTEYGELHLQIPRDRNGEFKQQTVPAYRRTNDTLEETVIHLFRKGITMSEIADLIEKMYGHHYTPQTMSNITKSFTEEVTAFKGRELHDRYAAIYMDATYIPLKRKTVAKEAIHIAVGIRPDGSKEVLSYAIAPTESITIWEEILLDLQERGLKNVLLFITDGLKGMVGAISRFYPKARFQHCCVHVSRNISHKVRVDDRKEVCDDFKMVYQTSSKKVALEARGAFAEKWKTSYPKVVESILSNDHLLTFYDFPLAIRKSIYSTNLIESFNKQIKKYSHRKEQFQNEESMERFLVSSFDTYNQKFLGRSHKGFQQAEGELEQMLSQLIEN | not soluble
MGSDKIHHHHHHMSTIEERIKEIEDEIKRTQYNKATEHHIGLLKAKIARLQMEARAHKGGGHYGFSIPKSGDATVALVGFPNVGKSSLLNVLTNSESEVGSYAFTTLKAIPGVMEYKGAEIQILDLPGIIENASYGAGRGREILSTVRSADLIVIVTDVETGGLDKIVKELYNSGIVVNRRRKNIEIKKTTSGGIRVHKPKNVDIDSEYIRQLMKEFKLVNADVYIREQVNEDDIIEAVQKNYVYIPSIVAVNKIDMNGAFDTSPLTRFGEVFKVSAKNRIGIDELREGIYRSLKLLRVYLRNKAGVVDFDKPLILTDGSTVRDVCRKINRSLIDSFRYAIISGKNRPIGEQRVGIDYPLLDEDIVTIISRN | not soluble
MKEKEYLFSLDMKVRDYECDLQGVVNNSNYQRYMEHTRHEFWESLGDNFGQMHEKGLDAFVYKVTITFKQSLRSGDRFRSCLTCHKKGPKLIFMQDIIREDGVMAARGEVEVVAVQDGVLTRGEYFDVLMKDILSKTTKLEHHHHHH | soluble
NTQITIKMEPDTQALEEVVVIGYGAVKKRDLTGAVSSVKNEDITLTPATNPMQALQGRVAGLDITQASGQPGEGPKLQLRGTRSFTASGDPMFIIDGMPGDYSTLNPNDIESIEVLKDASSTAVYGAAGANGVIIITTKSGKAGK | not soluble
MGSDKIHHHHHHMAIGIVIASHGEFAAGIHQSGSMIFGDQEKVQVVTFMPSEGPDDLYAKFNDAIAAFDADDEILVLADLWSGSPFNQASRVMEENSDRKFAIITGLNLPMLIQAYTERMMDAAAGVEQVAANIIKEAKDGVKILPEKLQPQEEAPTTSTKKAAPQGAIPEGTVIGDGKLKINLARVDTRLLHGQVATNWTPASKADRIIVASDTVAKDELRKGLIKQAAPGGVKANVVPIKKLIEAAKDPRFGNTHALILFETPQEALEAIEGGVPITELNIGSMAHSTGKTMVNNVISMDKDDVATFEKLRDLGVKFDVRKVPNDSQKDLFELIEKAHVQ | not soluble
MGSDKIHHHHHHMSDDLGSELQLLYLFVHLVNAGSFSQAAKELDMPIATVSRKLAKLEEKLDKQLFMRSTRKLRLTEEGLALFQRYQSVIAQFDELSGVGSDKPEGTLRIAAPISIISIIFIRALNEFGRLYPDIRLHISQSNELVDLIDKGIDVAIVGGAQPDSSWVSSTLGELDYCLFATPEYLAQAPKLTHPNDLEAHQLIKVWPLFNWHLKHPNGESFYFNGPTKLTLTDLHGAIESALDHGGILYGPELFVKQQIKEDRLKVLLPEWVGEQRRISILYHQRSQQPLKVRVFIEFMQSKAPELFSMA | not soluble
MSHDFAHTELEELLTRTREAIEASFGNRSPQVEVRGEGTDPDGHVRAVAVSGGRIETVEIAPQAVRLGSHRLAECALAAVNAALADLEAKAAEAAGLTGPQADALRERLREMQDLSLQQLRSYSRSLQDLMNSFERS | not soluble
MTKHKERVMYYGKGDVFAYRTYLKPLTGVRTIPESPFSGRDHILFGVNVKISVGGTKLLTSFTKGDNSLVVATDSMKNFIQKHLASYTGTTIEGFLEYVATSFLKKYSHIEKISLIGEEIPFETTFAVKNGNRAASELVFKKSRNEYATAYLNMVRNEDNTLNITEQQSGLAGLQLIKVSGNSFVGFIRDEYTTLPEDSNRPLFVYLNIKWKYKNTEDSFGTNPENYVAAEQIRDIATSVFHETETLSIQHLIYLIGRRILERFPQLQEVYFESQNHTWDKIVEEIPESEGKVYTEPRPPYGFQCFTVTQEDLPHENIL | soluble

Reference: the DeepSol protein solubility set
